Reference: PMC10586780 (Biochemical Journal, 2023)
“And” between values parts separate entries of the source, which are not always exact repeats. Identical values can stand only once.

Molecular target: the molecule itself
Experiment: native gel or EMSA

Row | Protein | stoichiometry N
1 | human platelet phosphofructokinase-1 with the cancer-associated mutation D564N (PFKP-D564N), recombinant (enzyme, UniProt Q01813-1 1-784, looked up) MDADDSRAPKGSLRKFLEHLSGAGKAIGVLTSGGDAQGMNAAVRAVVRMGIYVGAKVYFIYEGYQGMVDGGSNIAEADWESVSSILQVGGTIIGSARCQAFRTREGRLKAACNLLQRGITNLCVIGGDGSLTGANLFRKEWSGLLEELARNGQIDKEAVQKYAYLNVVGMVGSIDNDFCGTDMTIGTDSALHRIIEVVDAIMTTAQSHQRTFVLEVMGRHCGYLALVSALACGADWVFLPESPPEEGWEEQMCVKLSENRARKKRLNIIIVAEGAIDTQNKPITSEKIKELVVTQLGYDTRVTILGHVQRGGTPSAFDRILASRMGVEAVIALLEATPDTPACVVSLNGNHAVRLPLMECVQMTQDVQKAMDERRFQDAVRLRGRSFAGNLNTYKRLAIKLPDDQIPKTNCNVAVINVGAPAAGMNAAVRSAVRVGIADGHRMLAIYDGFDGFAKGQIKEIGWTDVGGWTGQGGSILGTKRVLPGKYLEEIATQMRTHSINALLIIGGFEAYLGLLELSAAREKHEEFCVPMVMVPATVSNNVPGSDFSIGADTALNTITDTCNRIKQSASGTKRRVFIIETMGGYCGYLANMGGLAAGADAAYIFEEPFDIRDLQSNVEHLTEKMKTTIQRGLVLRNESCSENYTTDFIYQLYSEEGKGVFDCRKNVLGHMQQGGAPSPFDRNFGTKISARAMEWITAKLKEARGRGKKFTTDDSICVLGISKRNVIFQPVAELKKQTDFEHRIPKEQWWLKLRPLMKILAKYKASYDVSDSGQLEHVQPWSV | 4
2 | human liver phosphofructokinase-1 (PFKL), wild type, recombinant (enzyme) MAAVDLEKLRASGAGKAIGVLTSGGDAQGMNAAVRAVTRMGIYVGAKVFLIYEGYEGLVEGGENIKQANWLSVSNIIQLGGTIIGSARCKAFTTREGRRAAAYNLVQHGITNLCVIGGDGSLTGANIFRSEWGSLLEELVAEGKISETTARTYSHLNIAGLVGSIDNDFCGTDMTIGTDSALHRIMEVIDAITTTAQSHQRTFVLEVMGRHCGYLALVSALASGADWLFIPEAPPEDGWENFMCERLGETRSRGSRLNIIIIAEGAIDRNGKPISSSYVKDLVVQRLGFDTRVTVLGHVQRGGTPSAFDRILSSKMGMEAVMALLEATPDTPACVVTLSGNQSVRLPLMECVQMTKEVQKAMDDKRFDEATQLRGGSFENNWNIYKLLAHQKPPKEKSNFSLAILNVGAPAAGMNAAVRSAVRTGISHGHTVYVVHDGFEGLAKGQVQEVGWHDVAGWLGRGGSMLGTKRTLPKGQLESIVENIRIYGIHALLVVGGFEAYEGVLQLVEARGRYEELCIVMCVIPATISNNVPGTDFSLGSDTAVNAAMESCDRIKQSASGTKRRVFIVETMGGYCGYLATVTGIAVGADAAYVFEDPFNIHDLKVNVEHMTEKMKTDIQRGLVLRNEKCHDYYTTEFLYNLYSSEGKGVFDCRTNVLGHLQQGGAPTPFDRNYGTKLGVKAMLWLSEKLREVYRKGRVFANAPDSACVIGLKKKAVAFSPVTELKKDTDFEHRMPREQWWLSLRLMLKMLAQYRISMAAYVSGELEHVTRRTLSMDKGF | 4 and > 4
3 | human liver phosphofructokinase-1 with the cancer-associated mutation D553N (PFKL-D553N), recombinant (enzyme) MAAVDLEKLRASGAGKAIGVLTSGGDAQGMNAAVRAVTRMGIYVGAKVFLIYEGYEGLVEGGENIKQANWLSVSNIIQLGGTIIGSARCKAFTTREGRRAAAYNLVQHGITNLCVIGGDGSLTGANIFRSEWGSLLEELVAEGKISETTARTYSHLNIAGLVGSIDNDFCGTDMTIGTDSALHRIMEVIDAITTTAQSHQRTFVLEVMGRHCGYLALVSALASGADWLFIPEAPPEDGWENFMCERLGETRSRGSRLNIIIIAEGAIDRNGKPISSSYVKDLVVQRLGFDTRVTVLGHVQRGGTPSAFDRILSSKMGMEAVMALLEATPDTPACVVTLSGNQSVRLPLMECVQMTKEVQKAMDDKRFDEATQLRGGSFENNWNIYKLLAHQKPPKEKSNFSLAILNVGAPAAGMNAAVRSAVRTGISHGHTVYVVHDGFEGLAKGQVQEVGWHDVAGWLGRGGSMLGTKRTLPKGQLESIVENIRIYGIHALLVVGGFEAYEGVLQLVEARGRYEELCIVMCVIPATISNNVPGTDFSLGSDTAVNAAMESCNRIKQSASGTKRRVFIVETMGGYCGYLATVTGIAVGADAAYVFEDPFNIHDLKVNVEHMTEKMKTDIQRGLVLRNEKCHDYYTTEFLYNLYSSEGKGVFDCRTNVLGHLQQGGAPTPFDRNYGTKLGVKAMLWLSEKLREVYRKGRVFANAPDSACVIGLKKKAVAFSPVTELKKDTDFEHRMPREQWWLSLRLMLKMLAQYRISMAAYVSGELEHVTRRTLSMDKGF | 4
